Reference: article PMC6077723 (Proceedings of the National Academy of Sciences of the …, 2018)

What was measured:
[1] = molecular target: MBP-HIGD1A chimera (hypoxia-inducible domain family member 1A with an N-terminal maltose binding protein tag) (human) (UniProt Q9Y241); assay: ITC
wild-type cytochrome c = wild-type cytochrome c (human, UniProt P99999 1-105); assay: ITC
Sequence of wild-type cytochrome c (P99999 whole entry): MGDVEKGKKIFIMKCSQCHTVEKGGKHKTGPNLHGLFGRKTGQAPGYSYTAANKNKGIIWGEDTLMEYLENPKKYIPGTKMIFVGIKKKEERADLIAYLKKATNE

stoichiometry N [1]	binding result (wild-type cytochrome c)	Molecule
1	–	Y97pCMF cytochrome c (phosphomimetic mutant) (from UniProt P99999 1-105) (natural protein)
–	binds	MSTDTGVSLPSYEEDQGSKLIRKAKE (domain or fragment, human, UniProt Q9Y241 1-26, looked up) [N-terminal domain of HIGD1A (HIGD1A 1-26)]
